Test results from patent publication US20070065895.

Experiments:
[1] = biological target: T1, GST-Asp1596-Arg1668-H
T1 chain: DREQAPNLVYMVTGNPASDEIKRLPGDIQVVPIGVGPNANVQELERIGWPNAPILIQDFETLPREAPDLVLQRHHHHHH

[2] = biological target: T2, GST-Asp1596-Arg1659-H
T2 chain: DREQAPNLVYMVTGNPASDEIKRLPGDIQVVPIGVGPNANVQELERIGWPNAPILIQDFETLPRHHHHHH

[3] = biological target: T3, GST-Glu1554-Arg1668-H
T3 chain: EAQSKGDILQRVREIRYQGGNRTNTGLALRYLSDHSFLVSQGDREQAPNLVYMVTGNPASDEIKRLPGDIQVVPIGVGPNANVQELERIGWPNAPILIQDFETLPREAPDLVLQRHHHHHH

[4] = biological target: T4, GST-Asp1587-Arg1668-H
T4 chain: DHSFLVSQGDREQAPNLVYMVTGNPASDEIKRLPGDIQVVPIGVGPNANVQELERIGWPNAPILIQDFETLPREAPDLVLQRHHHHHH

[5] = biological target: T5, GST-Asp1459-Arg1668-H
T5 chain: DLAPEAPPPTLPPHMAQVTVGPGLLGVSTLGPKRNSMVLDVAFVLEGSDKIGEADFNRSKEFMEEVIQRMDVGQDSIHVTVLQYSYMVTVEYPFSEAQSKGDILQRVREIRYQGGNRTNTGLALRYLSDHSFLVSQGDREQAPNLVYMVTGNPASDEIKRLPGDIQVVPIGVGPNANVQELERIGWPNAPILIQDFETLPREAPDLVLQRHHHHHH

B1: ADAMTS-13 (von Willebrand factor cleaving enzyme), as present in normal plasma (protein)
chain: AAGGILHLELLVAVGPDVFQAHQEDTERYVLTNLNIGAELLRDPSLGAQFRVHLVKMVILTEPEGAPNITANLTSSLLSVCGWSQTINPEDDTDPGHADLVLYITRFDLELPDGNRQVRGVTQLGGACSPTWSCLITEDTGFDLGVTIAHEIGHSFGLEHDGAPGSGCGPSGHVMASDGAAPRAGLAWSPCSRRQLLSLLSAGRARCVWDPPRPQPGSAGHPPDAQPGLYYSANEQCRVAFGPKAVACTFAREHLDMCQALSCHTDPLDQSSCSRLLVPLLDGTECGVEKWCSKGRCRSLVELTPIAAVHGRWSSWGPRSPCSRSCGGGVVTRRRQCNNPRPAFGGRACVGADLQAEMCNTQACEKTQLEFMSQQCARTDGQPLRSSPGGASFYHWGAAVPHSQGDALCRHMCRAIGESFIMKRGDSFLDGTRCMPSGPREDGTLSLCVSGSCRTFGCDGRMDSQQVWDRCQVCGGDNSTCSPRKGSFTAGRAREYVTFLTVTPNLTSVYIANHRPLFTHLAVRIGGRYVVAGKMSISPNTTYPSLLEDGRVEYRVALTEDRLPRLEEIRIWGPLQEDADIQVYRRYGEEYGNLTRPDITFTYFQPKPRQAWVWAAVRGPCSVSCGAGLRWVNYSCLDQARKELVETVQCQGSQQPPAWPEACVLEPCPPYWAVGDFGPCSASCGGGLRERPVRCVEAQGSLLKTLPPARCRAGAQQPAVALETCNPQPCPARWEVSEPSSCTSAGGAGLALENETCVPGADGLEAPVTEGPGSVDEKLPAPEPCVGMSCPPGWGHLDATSAGEKAPSPWGSIRTGAQAAHVWTPAAGSCSVSCGRGLMELRFLCMDSALRVPVQEELCGLASKPGSRREVCQAVPCPARWQYKLAACSVSCGRGVVRRILYCARAHGEDDGEEILLDTQCQGLPRPEPQEACSLEPCPPRWKVMSLGPCSASCGLGTARRSVACVQLDQGQDVEVDEAACAALVRPEASVPCLIADCTYRWHVGTWMECSVSCGDGIQRRRDTCLGPQAQAPVPADFCQHLPKPVTVRGCWAGPCVGQGTPSLVPHEEAAAPGRTTATPAGASLEWSQARGLLFSPAPQPRRLLPGPQENSVQSSACGRQHLEPTGTIDMRGPGQADCAVAIGRPLGEVVTLRVLESSLNCSAGDMLLLWGRLTWRKMCRKLLDMTFSSKTNTLVVRQRCGRPGGGVLLRYGSQLAPETFYRECDMQLFGPWGEIVSPSLSPATSNAGGCRLFINVAPHARIAIHALATNMGAGTEGANASYILIRDTHSLRTTAFHGQQVLYWESESSQAEMEFSEGFLKAQASLRGQYWTLQSWVPEMQDPQSWKGKEGT
cleavage fragment after 2 h reaction with normal plasma at 37 C (SDS-PAGE, western blot with anti-GST antibody) [1]: the expected fragment (indicated by the arrowheads in the figure) was clearly yielded
cleavage fragment after reaction with plasma of TTP patients and family members against normal plasma (SDS-PAGE, western blot with anti-GST antibody) [1]: When each of plasma samples from two patients was reacted with GST-Asp^1596Arg^1668H, there was not detected the fragment which is yielded by the reaction with normal plasma; with plasma of about one-half ADAMTS-13 activity the fragment was yielded at smaller amounts than with the normal plasma
cleavage fragment after 2 h reaction with normal plasma at 37 C (SDS-PAGE, western blot with anti-GST antibody) [2]: did not give the fragment or was difficult to give the fragment
cleavage fragment after 2 h reaction with normal plasma at 37 C (SDS-PAGE, western blot with anti-GST antibody) [3]: a very faint band was produced at the expected position
cleavage fragment after 2 h reaction with normal plasma at 37 C (SDS-PAGE, western blot with anti-GST antibody) [4]: the expected fragment (indicated by the arrowheads in the figure) was clearly yielded
cleavage fragment after 2 h reaction with normal plasma at 37 C (SDS-PAGE, western blot with anti-GST antibody) [5]: did not give the fragment or was difficult to give the fragment
